Source: paper PMC9240080 (Nature Communications, 2022)

Key:
Test in all cases: ELISA
Details in all cases: both partners purified
[1] = target: RaTG13-CoV RBD-His8-SpyTag003 (Bat coronavirus RaTG13, heterogeneous N-linked glycosylation)
[2] = target: SHC014-CoV RBD-His8-SpyTag003 (Bat SARS-like coronavirus RsSHC014, heterogeneous N-linked glycosylation)
[3] = target: Rs4081-CoV RBD-His8-SpyTag003 (Bat SARS-like coronavirus Rs4081, heterogeneous N-linked glycosylation)
[4] = target: pangolin17 (pang17)-CoV RBD-His8-SpyTag003 (Pangolin coronavirus pang17, heterogeneous N-linked glycosylation)
[5] = target: RmYN02-CoV RBD-His8-SpyTag003 (Bat coronavirus RmYN02, heterogeneous N-linked glycosylation)
[6] = target: Rf1-CoV RBD-His8-SpyTag003 (Bat SARS-like coronavirus Rf1, heterogeneous N-linked glycosylation)
[7] = target: WIV1-CoV RBD-His8-SpyTag003 (Bat SARS-like coronavirus WIV1, heterogeneous N-linked glycosylation)
[8] = target: Yunnan2011 (Yun11)-CoV RBD-His8-SpyTag003 (Bat coronavirus Cp/Yunnan2011, heterogeneous N-linked glycosylation)
[9] = target: BM48-31-CoV RBD-His8-SpyTag003 (Bat coronavirus BM48-31, heterogeneous N-linked glycosylation)
[10] = target: BtKY72-CoV RBD-His8-SpyTag003 (Bat coronavirus BtKY72, heterogeneous N-linked glycosylation)

Measured: binding result

B1: EY6A (antibody, V domains shown)
VH: EVQLVESGGGVVQPGRSLRLSCAASAFTFSSYDMHWVRQAPGKGLEWVAVISYDGSNKYYADSVKGRFTISRDNSKNTLYLQMNSLRAEDTAVYYCAKDGGKLWVYYFDYWGQGTLVTVSS
VL: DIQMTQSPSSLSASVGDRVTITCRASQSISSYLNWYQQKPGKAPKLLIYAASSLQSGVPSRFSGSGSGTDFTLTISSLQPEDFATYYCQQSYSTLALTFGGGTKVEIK
binds: all assays above
